Results: patent US20260166168A1 (MEDILINK THERAPEUTICS SUZHOU, published 2026)

T1: recombinant extracellular domain protein of mouse DLL3 (Mouse DLL3-His) (mouse, UniProt O88516 33-490)
T1 construct: extracellular domain; Commercial protein; also called mDLL3; not shown: His tag
T1 sequence (looked up): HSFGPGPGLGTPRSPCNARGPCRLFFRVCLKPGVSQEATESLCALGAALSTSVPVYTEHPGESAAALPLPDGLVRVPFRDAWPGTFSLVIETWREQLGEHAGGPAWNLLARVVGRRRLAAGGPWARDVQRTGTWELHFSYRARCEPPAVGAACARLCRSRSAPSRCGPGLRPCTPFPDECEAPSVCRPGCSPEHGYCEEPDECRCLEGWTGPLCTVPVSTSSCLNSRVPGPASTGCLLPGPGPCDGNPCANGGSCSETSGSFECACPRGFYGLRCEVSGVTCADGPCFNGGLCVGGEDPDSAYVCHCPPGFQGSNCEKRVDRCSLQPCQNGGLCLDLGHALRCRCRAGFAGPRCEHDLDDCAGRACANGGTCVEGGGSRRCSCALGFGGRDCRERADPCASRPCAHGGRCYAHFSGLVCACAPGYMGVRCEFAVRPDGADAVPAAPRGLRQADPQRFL

T2: recombinant extracellular domain protein of rat DLL3 (Rat DLL3-His) (rat, UniProt O88671 33-494)
T2 construct: extracellular domain; Commercial protein; not shown: His tag
T2 sequence (looked up): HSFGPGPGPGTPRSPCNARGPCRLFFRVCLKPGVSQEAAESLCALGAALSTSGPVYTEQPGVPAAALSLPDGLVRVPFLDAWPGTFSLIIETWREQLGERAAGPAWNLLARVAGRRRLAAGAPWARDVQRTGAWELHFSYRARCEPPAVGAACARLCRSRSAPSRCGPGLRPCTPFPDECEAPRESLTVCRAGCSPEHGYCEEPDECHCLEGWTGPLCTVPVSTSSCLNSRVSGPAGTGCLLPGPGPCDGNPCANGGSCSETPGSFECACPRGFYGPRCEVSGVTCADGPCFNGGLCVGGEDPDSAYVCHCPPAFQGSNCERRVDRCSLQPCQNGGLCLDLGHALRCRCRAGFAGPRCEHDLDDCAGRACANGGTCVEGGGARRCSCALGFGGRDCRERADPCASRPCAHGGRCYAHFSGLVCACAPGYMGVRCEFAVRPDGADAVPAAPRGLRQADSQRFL

T3: recombinant extracellular domain protein of cynomolgus monkey DLL3 (cyno.DLL3-ECD-His) (cynomolgus monkey, UniProt A0A2K5WSR1 27-490)
T3 construct: extracellular domain; Commercial protein; not shown: His tag
T3 sequence: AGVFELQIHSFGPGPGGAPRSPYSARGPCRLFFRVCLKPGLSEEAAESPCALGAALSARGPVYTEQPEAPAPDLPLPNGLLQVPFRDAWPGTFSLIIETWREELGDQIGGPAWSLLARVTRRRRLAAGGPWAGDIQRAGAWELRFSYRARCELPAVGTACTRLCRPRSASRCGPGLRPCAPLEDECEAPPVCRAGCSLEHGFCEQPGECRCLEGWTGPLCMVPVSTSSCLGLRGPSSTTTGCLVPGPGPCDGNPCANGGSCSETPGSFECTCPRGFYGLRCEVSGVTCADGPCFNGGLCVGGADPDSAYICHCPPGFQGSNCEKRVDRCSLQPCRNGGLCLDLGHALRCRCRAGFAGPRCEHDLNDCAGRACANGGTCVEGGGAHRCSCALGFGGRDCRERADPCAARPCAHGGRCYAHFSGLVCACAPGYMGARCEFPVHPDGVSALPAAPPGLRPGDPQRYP

T4: recombinant extracellular domain protein of human DLL3 (h.DLL3-ECD-His) (human, UniProt Q9NYJ7 27-492)
T4 construct: extracellular domain; Commercial protein; also called human DLL3 antigen; not shown: His tag
T4 sequence (looked up): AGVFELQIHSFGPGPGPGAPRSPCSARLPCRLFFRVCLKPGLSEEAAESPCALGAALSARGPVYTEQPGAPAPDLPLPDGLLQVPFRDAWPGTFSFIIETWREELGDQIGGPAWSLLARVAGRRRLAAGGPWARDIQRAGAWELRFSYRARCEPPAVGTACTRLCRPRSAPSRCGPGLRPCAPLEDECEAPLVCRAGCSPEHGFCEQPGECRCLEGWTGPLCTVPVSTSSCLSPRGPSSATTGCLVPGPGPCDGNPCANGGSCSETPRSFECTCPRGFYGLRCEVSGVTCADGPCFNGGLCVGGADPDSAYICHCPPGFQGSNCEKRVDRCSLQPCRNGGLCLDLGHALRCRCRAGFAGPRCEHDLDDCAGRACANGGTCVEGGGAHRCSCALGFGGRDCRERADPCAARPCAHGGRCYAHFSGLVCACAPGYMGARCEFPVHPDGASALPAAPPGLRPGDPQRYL

T5: human DLL1 on 293T-hDLL1 cells (human, UniProt O00548 18-723)
T5 construct: whole, on cells; also called 293T-DLL1; HEK293T-hDLL1
T5 sequence (looked up): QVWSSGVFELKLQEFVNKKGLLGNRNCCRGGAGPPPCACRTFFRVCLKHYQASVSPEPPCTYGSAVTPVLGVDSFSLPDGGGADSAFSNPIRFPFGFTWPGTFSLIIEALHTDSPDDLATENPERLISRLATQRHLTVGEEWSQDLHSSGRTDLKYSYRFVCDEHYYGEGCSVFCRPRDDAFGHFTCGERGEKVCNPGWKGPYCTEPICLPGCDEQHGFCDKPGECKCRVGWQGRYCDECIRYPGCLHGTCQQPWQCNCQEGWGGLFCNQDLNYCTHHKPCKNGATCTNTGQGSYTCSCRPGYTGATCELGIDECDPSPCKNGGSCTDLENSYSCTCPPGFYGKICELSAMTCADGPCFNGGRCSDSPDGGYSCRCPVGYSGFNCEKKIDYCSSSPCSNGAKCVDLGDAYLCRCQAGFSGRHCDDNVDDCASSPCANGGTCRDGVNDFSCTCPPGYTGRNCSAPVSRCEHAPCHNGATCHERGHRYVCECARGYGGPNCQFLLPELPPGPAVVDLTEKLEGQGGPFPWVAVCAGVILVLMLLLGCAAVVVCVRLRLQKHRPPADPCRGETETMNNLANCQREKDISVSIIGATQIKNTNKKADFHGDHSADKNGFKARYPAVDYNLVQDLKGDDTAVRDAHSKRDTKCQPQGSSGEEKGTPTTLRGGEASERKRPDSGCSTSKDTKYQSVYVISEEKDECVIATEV


Key:
[1] = target: T1, recombinant extracellular domain …; assay: ELISA, coated Mouse DLL3-His 0.2 µg/mL, antibody titrated
[2] = target: T2, recombinant extracellular domain …; assay: ELISA, coated Rat DLL3-his 0.2 µg/mL, antibody titrated
[3] = target: T3, recombinant extracellular domain …; assay: ELISA, coated cyno.DLL3-ECD-his 0.2 µg/mL, antibody titrated
[4] = target: canine canis DLL3-ECD-his antigen protein (canine); assay: ELISA, coated Canis DLL3-his 0.2 µg/mL, antibody titrated
[5] = target: T4, recombinant extracellular domain …; assay: ELISA, coated h.DLL3-ECD-his 0.2 µg/mL, antibody titrated
[6] = target: T6, human DLL4 on 293T-hDLL4 cells (human, UniProt Q9NR61 27-685); assay: flow cytometry on 293T-hDLL4 cells, antibody 20 µg/mL
T6 construct: whole, on cells; also called 293T-DLL4; HEK293T-hDLL4
T6 sequence (Q9NR61 27-685): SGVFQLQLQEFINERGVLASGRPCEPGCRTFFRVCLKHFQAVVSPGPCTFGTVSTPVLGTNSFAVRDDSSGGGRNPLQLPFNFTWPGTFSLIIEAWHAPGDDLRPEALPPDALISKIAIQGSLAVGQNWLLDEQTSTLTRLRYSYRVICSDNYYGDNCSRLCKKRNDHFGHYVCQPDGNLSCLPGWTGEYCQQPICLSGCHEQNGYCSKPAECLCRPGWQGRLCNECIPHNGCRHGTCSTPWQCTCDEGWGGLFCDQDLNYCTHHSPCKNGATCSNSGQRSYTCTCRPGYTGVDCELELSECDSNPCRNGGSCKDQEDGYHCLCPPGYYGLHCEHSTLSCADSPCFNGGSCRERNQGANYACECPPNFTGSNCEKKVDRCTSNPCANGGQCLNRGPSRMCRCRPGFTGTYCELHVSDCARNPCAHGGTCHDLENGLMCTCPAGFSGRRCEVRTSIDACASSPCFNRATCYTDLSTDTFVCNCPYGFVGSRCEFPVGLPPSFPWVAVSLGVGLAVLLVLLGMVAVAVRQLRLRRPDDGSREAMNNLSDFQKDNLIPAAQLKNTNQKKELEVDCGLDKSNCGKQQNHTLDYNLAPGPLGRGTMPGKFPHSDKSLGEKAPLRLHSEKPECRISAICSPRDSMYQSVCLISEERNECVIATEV

[7] = target: T4, recombinant extracellular domain …; assay: ELISA, coated hDLL3-ECD-his, murine antibody titrated
[8] = target: T3, recombinant extracellular domain …; assay: ELISA, coated cynoDLL3-ECD-his, murine antibody titrated
[9] = target: T5, human DLL1 on 293T-hDLL1 cells; assay: flow cytometry on 293T-hDLL1 cells, antibody 20 µg/mL

| EC50 [1] [ng/mL] | EC50 [2] [ng/mL] | EC50 [3] [ng/mL] | EC50 [4] [ng/mL] | EC50 [5] [ng/mL] | positive rate [6] [%] | EC50 [7] [ng/mL] | EC50 [8] [ng/mL] | positive rate [9] [%] | Binder |
| --- | --- | --- | --- | --- | --- | --- | --- | --- | --- |
| 21.3 | 3.67 | 4.98 | 12.9 | 4.95 | – | – | – | – | 55C11E4-Hz2 (antibody, human IgG1, kappa, V domains shown, Optimized humanized IgG1/kappa; also called 55C11E4-Hz2-biotin) VH: EVQLVQSGAEVKKPGASVKVSCKASGYTFTDYYMNWVRQAPGQRLEWMGVINPYNGGTNYAQKFQGRVTLTVDKSASTAYMELSSLRSEDTAVYYCARDSNYVGLLDYWGQGTLVTVSS VL: DIVLTQSPATLSLSPGERATLSCRASQSISNNLHWYQQKPGQAPRLLIKYASQSISGIPARFSGSGSGPDFTLTISSLEPEDFAVYFCQQSNSWPYTFGQGTKVEIKR |
| 30.1 | 7.35 | 10.8 | 17.2 | 8.23 | – | – | – | – | 6F11C10-Hz2 antibody (antibody, human IgG1, kappa, V domains shown, Optimized humanized IgG1/kappa; also called 6FC11C0-Hz2; 6F11C10-Hz2-biotin) VH: EVQLVQSGAEVKKPGASVKVSCKASGFTFTDYYMHWVRQAPGQSLEWMGLVYPYSGDISYAQKFQGRVTLTVDTSISTAYMELSRLRSDDTAVYYCARQGNYVNNAIDYWGQGTLVTVSS VL: DIQMTQSPSSLSASVGDRVTITCKASQNVGNIIAWYQQKPGKSPKALIYLASYRYSGVPSRFSGSGSGTDFTLTISSLQPEDVATYFCQQYSDSPYTFGQGTKVEIKR |
| – | – | – | – | – | 0.76 | 7.59 | 19.5 | 0.64 | murine antibody 6F11C10 (antibody, V domains shown, Murine antibody purified from hybridoma supernatant) VH: EVHLQQSGPVLVKPGPSVKISCKASGFTFTDYYMHWVKQSHGKSLEWIGLVYPYNGDISYNQKFKGKATLTVDTSSSTAYMELNSLTSEDSAVYYCARQGNYVNNAIDYWGQGTSVTVSS VL: DIVMTQSQKFMSTSVGDRVSISCKASQNVGNIIAWYQQKPGQSPKALIYLASYRYSGVPDRFTGSGSGTDFTLTINNVQSEDLAEYFCQQYSDSPYTFGSGTKLEI |
| – | – | – | – | – | 0.67 | 1.3 | 1.25 | 6.3 | murine antibody 59B10D3 (antibody, V domains shown, Murine antibody purified from hybridoma supernatant) VH: EVKLEESGGGLVQPGGSMKLSCAASGFTFSDAWMDWVRQSPEKGLEWIAEIRNKANNHATYYTESVKGRFTISRDDSKSSVYLQMISLRPEDTGIYYCTRNNYGSTWTYYAMDYWGQGTSVTVSS VL: DIQMTQTSSSLSASLGDRVTINCRASQDISNYLNWYQQKPDGTVKLLIYYTSRLHSGVPSRFSGSGSGTDYSLTISNLEHEDIATYFCQQGYTLPLTFGAGTNLELK |
| – | – | – | – | – | 0.1 | 56.7 | 40.9 | 0.92 | murine antibody 55C11E4 (antibody, V domains shown, Murine antibody purified from hybridoma supernatant) VH: EVQLQQSGPVLVKPGASVKMSCKASGYTFTDYYMNWVKQSHGKSLEWIGVINPYNGGTNYSQKFKGKATLTVDKSSSTAYMELNSLTSEDSAVYYCARDSNYVGLLDYWGQGTSVTVSS VL: DIVLTQSPATLSVTPGDSVSLSCRASQSISNNLHWYQQKSHESPRLLIKYASQSISGIPSRFSGSGSGPDFTLSIDSVETEDFGVYFCQQSNSWPYTFGGGTKLEIK |
| – | – | – | – | – | 0.42 | 1.68 | 1.31 | 1.84 | murine antibody 87F7F10 (antibody, V domains shown, Murine antibody purified from hybridoma supernatant) VH: DVQLQESGPGLVKPSQSLSLTCSVTGYSITSDFYWNWIRQFPGNKLEWMGYITYDGSTNYDPSLKNRISITRDTSKNQFFLKLNSVTAEDTATYYCVYGDFNRHAMDYWGQGTSVTVSS VL: DIVMSQSPSSLAVSAGEKVTMSCRSSQSLFNSRTRKNYLAWYQQKPGQPPKVLIYWASTRESGVPDRFTGSGSGTDFTLTISSVQAEDLAVYYCEQSFYLFTFGTGTKLEI |
